# Measured values: patent US20230406950A1 (LYVGEN BIOPHARMA, published 2023)
# B1: Ly514 (bispecific antibody, human IgG2, kappa)
# heavy: QVTLKESGPALVKPTQTLTLTCTFSGFSLSTSGTCVSWIRQPPGKALEWLATICWEDSKGYNPSLKSRLTISKDTSKNQAVLTMTNMDPVDTATYYCARREDSGYFWFPYWGQGTLVTVSSASTKGPSVFPLAPCSRSTSESTAALGCLVKDYFPEPVTVSWNSGALTSGVHTFPAVLQSSGLYSLSSVVTVPSSNFGTQTYTCNVDHKPSNTKVDKTVERKCCVECPPCPAPPVAPSVFLFPPKPKDTLMISRTPEVTCVVVDVSHEDPEVQFNWYVDGVEVHNAKTKPREEQFNSTFRVVSVLTVVHQDWLNGKEYKCKVSNKGLPAPIEKTISKTKGQPREPQVYTLPPSREEMTKNQVSLTCLVKGFYPSDIAVEWESNGQPENNYKTTPPMLDSDGSFFLYSKLTVDKSRWQQGNVFSCSVMHEALHNHYTQKSLSLSPGGGGGSGGGGSGGGGSGGGGSDIQMTQSPSSLSASVGDRVTITCRASQDIRSNLNWYQQKPGGAVKLLIYYTSRLHSGVPSRFSGSGSGTDYTLTISSLQPEDFATYFCQQSEKLPRTFGGGTKVEIRRTVAAPSVFIFPPSDEQLKSGTASVVCLLNNFYPREAKVQWKVDNALQSGNSQESVTEQDSKDSTYSLSSTLTLSKADYEKHKVYACEVTHQGLSSPVTKSFNRGEC
# light: NIQMTQSPSSLSASVGDRVTITCKAGQNVNNYLAWYQQKPGKAPKVLIFNANSLQTGVPSRFSGSGSGTDFTLTISSLQPEDFATYYCQQYNSWPTFGGGTKVEIKRTVAAPSVFIFPPSDEQLKSGTASVVCLLNNFYPREAKVQWKVDNALQSGNSQESVTEQDSKDSTYSLSSTLTLSKADYEKHKVYACEVTHQGLSSPVTKSFNRGEC
# chain: QVQLVQSGAEVKKPGASVKVSCKASGYTFAGFEMHWVRQAPGQGLEWMGAIDPKTGGTDYNQKFKDRVTMTRDTSISTAYMELSRLRSDDTAVYYCARDLGYFDVWGQGTLVTVSSASTKGPSVFPLAPSSKSTSGGTAALGCLVKDYFPEPVTVSWNSGALTSGVHTFPAVLQSSGLYSLSSVVTVPSSSLGTQTYICNVNHKPSNTKVDKKVEPKSCDK
# notes: Three-chain format: Ly516 heavy chain fused to Ly1630 light chain; Ly516 light chain; Ly1630 VH-CH1
# B2: Ly461 (bispecific antibody, human IgG1, kappa)
# heavy: QVQLVQSGAEVKKPGASVKVSCKASGYTFAGFEMHWVRQAPGQGLEWMGAIDPKTGGTDYNQKFKDRVTMTRDTSISTAYMELSRLRSDDTAVYYCARDLGYFDVWGQGTLVTVSSASTKGPSVFPLAPSSKSTSGGTAALGCLVKDYFPEPVTVSWNSGALTSGVHTFPAVLQSSGLYSLSSVVTVPSSSLGTQTYICNVNHKPSNTKVDKKVEPKSCDKTHTCPPCPAPELLGPSVFLFPPKPKDTLMISRTPEVTCVVVDVSHEDPEVKFNWYVDGVEVHNAKTKPREEQYNSTYRVVSVLTVLHQDWLNGKEYKCKVSNKALPAPIEKTISKAKGQPREPQVYTLPPSREEMTKNQVSLTCLVKGFYPSDIAVEWESNGQPENNYKTTPPVLDSDGSFFLYSKLTVDKSRWQQGNVFSCSVMHEALHNHYTQKSLSLSPGGGGGSGGGGSGGGGSGGGGSNIQMTQSPSSLSASVGDRVTITCKAGQNVNNYLAWYQQKPGKAPKVLIFNANSLQTGVPSRFSGSGSGTDFTLTISSLQPEDFATYYCQQYNSWPTFGGGTKVEIKRTVAAPSVFIFPPSDEQLKSGTASVVCLLNNFYPREAKVQWKVDNALQSGNSQESVTEQDSKDSTYSLSSTLTLSKADYEKHKVYACEVTHQGLSSPVTKSFNRGEC
# light: DIQMTQSPSSLSASVGDRVTITCRASQDIRSNLNWYQQKPGGAVKLLIYYTSRLHSGVPSRFSGSGSGTDYTLTISSLQPEDFATYFCQQSEKLPRTFGGGTKVEIRRTVAAPSVFIFPPSDEQLKSGTASVVCLLNNFYPREAKVQWKVDNALQSGNSQESVTEQDSKDSTYSLSSTLTLSKADYEKHKVYACEVTHQGLSSPVTKSFNRGEC
# chain: QVTLKESGPALVKPTQTLTLTCTFSGFSLSTSGTCVSWIRQPPGKALEWLATICWEDSKGYNPSLKSRLTISKDTSKNQAVLTMTNMDPVDTATYYCARREDSGYFWFPYWGQGTLVTVSSASTKGPSVFPLAPSSKSTSGGTAALGCLVKDYFPEPVTVSWNSGALTSGVHTFPAVLQSSGLYSLSSVVTVPSSSLGTQTYICNVNHKPSNTKVDKKVEPKSCDK
# notes: Three-chain format: Ly1630 heavy chain fused to Ly516 light chain; Ly1630 light chain; Ly516 VH-CH1
# B3: Ly515 (bispecific antibody, human IgG2, kappa)
# heavy: QVQLVQSGAEVKKPGASVKVSCKASGYTFAGFEMHWVRQAPGQGLEWMGAIDPKTGGTDYNQKFKDRVTMTRDTSISTAYMELSRLRSDDTAVYYCARDLGYFDVWGQGTLVTVSSASTKGPSVFPLAPCSRSTSESTAALGCLVKDYFPEPVTVSWNSGALTSGVHTFPAVLQSSGLYSLSSVVTVPSSNFGTQTYTCNVDHKPSNTKVDKTVERKCCVECPPCPAPPVAPSVFLFPPKPKDTLMISRTPEVTCVVVDVSHEDPEVQFNWYVDGVEVHNAKTKPREEQFNSTFRVVSVLTVVHQDWLNGKEYKCKVSNKGLPAPIEKTISKTKGQPREPQVYTLPPSREEMTKNQVSLTCLVKGFYPSDIAVEWESNGQPENNYKTTPPMLDSDGSFFLYSKLTVDKSRWQQGNVFSCSVMHEALHNHYTQKSLSLSPGGGGGSGGGGSGGGGSGGGGSNIQMTQSPSSLSASVGDRVTITCKAGQNVNNYLAWYQQKPGKAPKVLIFNANSLQTGVPSRFSGSGSGTDFTLTISSLQPEDFATYYCQQYNSWPTFGGGTKVEIKRTVAAPSVFIFPPSDEQLKSGTASVVCLLNNFYPREAKVQWKVDNALQSGNSQESVTEQDSKDSTYSLSSTLTLSKADYEKHKVYACEVTHQGLSSPVTKSFNRGEC
# light: B2 light
# chain: B2 chain
# notes: as for B2
# B4: Ly253-G2 (antibody, human IgG2, kappa, V domains shown)
# VH: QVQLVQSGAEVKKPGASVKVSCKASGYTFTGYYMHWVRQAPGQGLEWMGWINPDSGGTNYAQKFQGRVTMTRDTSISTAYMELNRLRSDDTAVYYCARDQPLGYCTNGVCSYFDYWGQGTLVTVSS
# VL: DIQMTQSPSSVSASVGDRVTITCRASQGIYSWLAWYQQKPGKAPNLLIYTASTLQSGVPSRFSGSGSGTDFTLTISSLQPEDFATYYCQQANIFPLTFGGGTKVEIKR
# notes: also called anti-CD40 antibody
# Assays:
# [1] = molecular target: T1, human CD137 expressed on cells (human, UniProt Q07011 24-255); test: flow cytometry (FACS), MFI, CHO cells expressing human CD137
# T1 construct: whole, on cells; also called 4-1BB; TNFRSF9
# T1 sequence (Q07011 24-255): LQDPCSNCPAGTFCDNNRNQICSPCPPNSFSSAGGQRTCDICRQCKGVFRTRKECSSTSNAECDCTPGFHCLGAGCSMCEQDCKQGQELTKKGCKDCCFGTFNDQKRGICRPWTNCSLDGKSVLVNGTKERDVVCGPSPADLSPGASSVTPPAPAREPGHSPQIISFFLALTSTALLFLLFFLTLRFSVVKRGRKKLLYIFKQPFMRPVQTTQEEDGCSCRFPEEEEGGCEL
# Procedure: (§1) Exemplary anti-PD-1/CD137 bi-specific antibodies were analyzed by FACS for their binding properties to human PD-1 and/or human CD137 expressed on CHO cells. Briefly, cultured cells were harvested, counted and cell viability was evaluated using the Trypan Blue exclusion method. Viable cells were then adjusted to 2×10⁶ cells per mL in PBS containing 2% BSA. 100 μL of this cell suspension were further aliquoted per well into a V-bottom 96-well plate. […] After incubation for 2 hours at 4° C., cells were centrifuged (3 min, 1000× g), washed with 250 μL/well BSA-containing FACS Stain Buffer, resuspended and incubated for an additional 1 hour at 4° C. with 100 μL/well fluorochrome-conjugated anti-IgG antibody for detection of the bisepecific antibody. Cells were then washed with 250 μL/well BSA-containing FACS Stain Buffer, resuspended in 100 μL/well FACS Stain Buffer, acquired and analyzed using a FACS machine. Binding of the bispecific antibodies to human PD-1 or human CD137 expressing CHO cells were evaluated and the mean fluorescence intensity is plotted in histograms or dot plots.
# [2] = molecular target: T2, human PD-1 expressed on cells (human, UniProt Q15116 25-288); test: flow cytometry (FACS), MFI, CHO cells expressing human PD-1
# T2 construct: whole, on cells; also called human PD-1 over-expressed on the CHO cells; Jurkat/NFkB-Luci/PD-1 cells
# T2 sequence (Q15116 25-288): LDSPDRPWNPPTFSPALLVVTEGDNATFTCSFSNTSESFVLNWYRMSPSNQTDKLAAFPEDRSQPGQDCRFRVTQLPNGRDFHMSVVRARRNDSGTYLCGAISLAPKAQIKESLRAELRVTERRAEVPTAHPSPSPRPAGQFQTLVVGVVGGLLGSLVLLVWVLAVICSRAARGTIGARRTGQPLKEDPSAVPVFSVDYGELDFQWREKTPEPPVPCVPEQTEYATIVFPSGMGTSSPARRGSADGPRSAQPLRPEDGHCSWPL
# Procedure: as §1
# [3] = molecular target: T3, human CD40 expressed on CHO cells (human, UniProt P25942 21-277); test: FACS on CHO cells expressing human CD40 (MFI)
# T3 construct: whole, on cells
# T3 sequence (P25942 21-277): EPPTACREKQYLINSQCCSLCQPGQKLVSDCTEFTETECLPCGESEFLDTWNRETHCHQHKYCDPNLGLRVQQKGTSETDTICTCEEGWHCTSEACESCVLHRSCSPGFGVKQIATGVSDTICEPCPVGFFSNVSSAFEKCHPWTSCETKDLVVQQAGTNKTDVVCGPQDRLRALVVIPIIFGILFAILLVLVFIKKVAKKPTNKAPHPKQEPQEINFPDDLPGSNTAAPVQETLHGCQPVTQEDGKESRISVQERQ
# Procedure: as §1, with “Anti-CD40/CD137” for “Exemplary anti-PD-1/CD137”, “CD40” for “PD-1”, “1000×g),” for “1000× g),”
Binder,EC50 (read off the curve) [1],EC50 (read off the curve) [2],EC50 (read off the curve) [3]
B1,~0.5 µg/mL,~0.2 µg/mL,
B2,~0.1 µg/mL,,
B3,~0.1 µg/mL,,
B4,,,~0.09 µg/mL
